# Experimental data: paper PMC8427654
# T1: split luciferase wild-type (WT) Apaf-1 (apoptotic protease activating factor-1), O14727
# T1 chain: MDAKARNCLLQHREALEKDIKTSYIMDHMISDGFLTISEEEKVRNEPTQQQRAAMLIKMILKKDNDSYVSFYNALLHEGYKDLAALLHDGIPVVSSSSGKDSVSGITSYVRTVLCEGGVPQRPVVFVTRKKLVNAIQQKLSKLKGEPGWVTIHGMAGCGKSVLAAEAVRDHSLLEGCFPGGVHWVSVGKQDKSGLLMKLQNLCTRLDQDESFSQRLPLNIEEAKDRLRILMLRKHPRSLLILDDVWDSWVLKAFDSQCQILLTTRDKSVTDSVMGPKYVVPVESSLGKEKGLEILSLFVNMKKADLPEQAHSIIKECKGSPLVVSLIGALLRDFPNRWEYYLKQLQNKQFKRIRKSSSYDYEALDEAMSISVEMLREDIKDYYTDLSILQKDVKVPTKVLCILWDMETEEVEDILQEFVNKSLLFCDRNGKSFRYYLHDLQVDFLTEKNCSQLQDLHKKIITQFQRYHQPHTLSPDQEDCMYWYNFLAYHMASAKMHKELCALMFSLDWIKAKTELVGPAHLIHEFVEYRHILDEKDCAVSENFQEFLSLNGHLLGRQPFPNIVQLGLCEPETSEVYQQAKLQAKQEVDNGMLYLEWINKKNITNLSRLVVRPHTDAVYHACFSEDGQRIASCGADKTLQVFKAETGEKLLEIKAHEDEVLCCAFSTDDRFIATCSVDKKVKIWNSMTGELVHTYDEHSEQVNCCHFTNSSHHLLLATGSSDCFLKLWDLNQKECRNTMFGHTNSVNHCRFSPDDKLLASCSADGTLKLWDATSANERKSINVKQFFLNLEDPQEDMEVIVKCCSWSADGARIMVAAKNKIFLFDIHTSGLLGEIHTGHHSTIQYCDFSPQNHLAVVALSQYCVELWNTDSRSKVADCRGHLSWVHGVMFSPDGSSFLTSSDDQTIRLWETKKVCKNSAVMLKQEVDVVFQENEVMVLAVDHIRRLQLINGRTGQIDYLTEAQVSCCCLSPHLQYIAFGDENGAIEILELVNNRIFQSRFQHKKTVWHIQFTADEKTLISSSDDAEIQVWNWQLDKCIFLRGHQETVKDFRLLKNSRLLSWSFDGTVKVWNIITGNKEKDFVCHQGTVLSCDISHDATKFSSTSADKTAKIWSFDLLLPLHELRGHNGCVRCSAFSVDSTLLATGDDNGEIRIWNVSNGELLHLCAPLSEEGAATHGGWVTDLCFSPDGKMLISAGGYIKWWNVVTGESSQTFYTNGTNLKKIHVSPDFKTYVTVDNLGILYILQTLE
# Molecular target: T1, split luciferase wild-type (WT) Apaf-1 …
# Assay: split reporter
# Conditions: remark: other sources report otherwise
binder,measurement,value
"split luciferase wild-type (WT) Apaf-1 (apoptotic protease activating factor-1), O14727 1-1248 (natural protein) MDAKARNCLLQHREALEKDIKTSYIMDHMISDGFLTISEEEKVRNEPTQQQRAAMLIKMILKKDNDSYVSFYNALLHEGYKDLAALLHDGIPVVSSSSGKDSVSGITSYVRTVLCEGGVPQRPVVFVTRKKLVNAIQQKLSKLKGEPGWVTIHGMAGCGKSVLAAEAVRDHSLLEGCFPGGVHWVSVGKQDKSGLLMKLQNLCTRLDQDESFSQRLPLNIEEAKDRLRILMLRKHPRSLLILDDVWDSWVLKAFDSQCQILLTTRDKSVTDSVMGPKYVVPVESSLGKEKGLEILSLFVNMKKADLPEQAHSIIKECKGSPLVVSLIGALLRDFPNRWEYYLKQLQNKQFKRIRKSSSYDYEALDEAMSISVEMLREDIKDYYTDLSILQKDVKVPTKVLCILWDMETEEVEDILQEFVNKSLLFCDRNGKSFRYYLHDLQVDFLTEKNCSQLQDLHKKIITQFQRYHQPHTLSPDQEDCMYWYNFLAYHMASAKMHKELCALMFSLDWIKAKTELVGPAHLIHEFVEYRHILDEKDCAVSENFQEFLSLNGHLLGRQPFPNIVQLGLCEPETSEVYQQAKLQAKQEVDNGMLYLEWINKKNITNLSRLVVRPHTDAVYHACFSEDGQRIASCGADKTLQVFKAETGEKLLEIKAHEDEVLCCAFSTDDRFIATCSVDKKVKIWNSMTGELVHTYDEHSEQVNCCHFTNSSHHLLLATGSSDCFLKLWDLNQKECRNTMFGHTNSVNHCRFSPDDKLLASCSADGTLKLWDATSANERKSINVKQFFLNLEDPQEDMEVIVKCCSWSADGARIMVAAKNKIFLFDIHTSGLLGEIHTGHHSTIQYCDFSPQNHLAVVALSQYCVELWNTDSRSKVADCRGHLSWVHGVMFSPDGSSFLTSSDDQTIRLWETKKVCKNSAVMLKQEVDVVFQENEVMVLAVDHIRRLQLINGRTGQIDYLTEAQVSCCCLSPHLQYIAFGDENGAIEILELVNNRIFQSRFQHKKTVWHIQFTADEKTLISSSDDAEIQVWNWQLDKCIFLRGHQETVKDFRLLKNSRLLSWSFDGTVKVWNIITGNKEKDFVCHQGTVLSCDISHDATKFSSTSADKTAKIWSFDLLLPLHELRGHNGCVRCSAFSVDSTLLATGDDNGEIRIWNVSNGELLHLCAPLSEEGAATHGGWVTDLCFSPDGKMLISAGGYIKWWNVVTGESSQTFYTNGTNLKKIHVSPDFKTYVTVDNLGILYILQTLE","luciferase activity, fold over pcDNA3 transfection control",32 fold
